Experimental findings from publication PMC5443481, “Binding of CIB1 to the αIIb tail of αIIbβ3 is required for FAK recruitment and activation in platelets” (PLoS ONE, 2017) are described below.

Experiment [1] concerns the target calcium- and integrin-binding protein 1 (CIB1) (human (endogenous in platelets)) (UniProt Q99828). Kind of experiment: co-IP; anti-CIB1 immunoprecipitates (overnight 4°C, protein G-Sepharose) of pre-cleared 1% Nonidet P-40 lysates of washed human platelets exposed to BSA or immobilized Fg for ~45 min; blots for αIIb, FAK, c-Src; treatments: DMSO, BAPTA-AM (50 μM), cytochalasin D after adhesion.

Experiment [2] deals with T1, calcium- and integrin-binding protein 1 (CIB1) (human (endogenous in platelets), UniProt Q99828 1-191).
T1 sequence (looked up): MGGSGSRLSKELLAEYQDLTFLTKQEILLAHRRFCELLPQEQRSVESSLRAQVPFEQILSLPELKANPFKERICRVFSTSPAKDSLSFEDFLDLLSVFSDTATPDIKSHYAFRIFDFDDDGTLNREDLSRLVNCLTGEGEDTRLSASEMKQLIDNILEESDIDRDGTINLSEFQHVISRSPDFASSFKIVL
Kind of experiment: cell-based or functional assay.

On to “integrin αIIb subunit of αIIbβ3 (receptor)”, for which, in experiment [1], the fold reduction of co-precipitated αIIb with BAPTA-AM against vehicle stood at 6 fold. On to KVGFFKRNRPPLEEDDEEGE (peptide, UniProt P08514 1020-1039, looked up) [αIIb cytoplasmic domain peptide], for which the “c-Src activation (pY418 blot of lysates) in human platelets on immobilized Fg; inhibition by the incorporated αIIb peptide, which blocks CIB1 with αIIb (m1+m2)” value in experiment [2] was over 8 fold.
